Publication PMC4865107

Legend:
Topo IV [1] = assay: EMSA (agarose); conditions: no XerCD; 200 nM Topo IV required for migration delay; 1 mM spermidine, 30 mM potassium glutamate, 10 mM DTT, 6 mM MgCl2, 10% glycerol, pH 7.4, 15 min at RT; 4% native PAGE (plasmid: 0.8% agarose, 0.5x TAE, 4 C)
[2] = tested on: Topo IV;XerC;XerD (Escherichia coli?;Escherichia coli?;Escherichia coli?); assay: EMSA (agarose); conditions: 50 nM XerCD; migration delay seen with 40 nM Topo IV; 1 mM spermidine, 30 mM potassium glutamate, 10 mM DTT, 6 mM MgCl2, 10% glycerol, pH 7.4, 15 min at RT; 4% native PAGE (plasmid: 0.8% agarose, 0.5x TAE, 4 C)
Topo IV [3] = assay: EMSA; conditions: Topo IV alone; stated as bound poorly; 1 mM spermidine, 30 mM potassium glutamate, 10 mM DTT, 6 mM MgCl2, 10% glycerol, pH 7.4, 15 min at RT; 4% native PAGE (plasmid: 0.8% agarose, 0.5x TAE, 4 C)

Substance | binding (Topo IV [1]) [nM] | binding [2] [nM] | Kd (Topo IV [3]) [nM]
negatively supercoiled plasmid containing dif | 200 | 40 | 
dif probe, 250 bp |  |  | > 100
